Reference: US20230051715A1 (MABWELL THERAPEUTICS, published 2023)

T1: human C1s deletion mutant 1 (M151) (human) (UniProt P09871)
T1 sequence: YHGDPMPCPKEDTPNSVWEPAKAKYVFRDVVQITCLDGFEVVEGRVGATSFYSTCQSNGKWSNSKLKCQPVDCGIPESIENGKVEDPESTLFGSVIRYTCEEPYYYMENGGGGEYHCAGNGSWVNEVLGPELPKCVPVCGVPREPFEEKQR

T2: human C1s mutant M10 (D283I & P285A) (human, UniProt P09871 16-688)
T2 construct: The entry is the mutant itself
T2 sequence: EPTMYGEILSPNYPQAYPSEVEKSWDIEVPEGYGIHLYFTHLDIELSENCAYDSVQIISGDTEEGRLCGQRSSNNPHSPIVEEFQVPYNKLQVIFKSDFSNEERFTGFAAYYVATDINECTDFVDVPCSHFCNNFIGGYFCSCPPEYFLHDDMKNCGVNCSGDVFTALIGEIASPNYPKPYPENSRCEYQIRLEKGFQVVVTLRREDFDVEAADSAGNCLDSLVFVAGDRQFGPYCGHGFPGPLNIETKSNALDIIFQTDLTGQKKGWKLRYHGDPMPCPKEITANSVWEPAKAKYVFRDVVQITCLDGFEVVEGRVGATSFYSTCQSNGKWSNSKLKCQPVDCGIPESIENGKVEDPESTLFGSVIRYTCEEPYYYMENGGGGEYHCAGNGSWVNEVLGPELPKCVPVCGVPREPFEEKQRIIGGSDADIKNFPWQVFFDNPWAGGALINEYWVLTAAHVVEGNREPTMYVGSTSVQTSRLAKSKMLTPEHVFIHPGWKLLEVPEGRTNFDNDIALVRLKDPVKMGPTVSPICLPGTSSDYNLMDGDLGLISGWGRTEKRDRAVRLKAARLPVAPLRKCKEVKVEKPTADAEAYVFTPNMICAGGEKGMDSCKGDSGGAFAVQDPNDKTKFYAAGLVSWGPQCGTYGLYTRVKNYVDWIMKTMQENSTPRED

T3: human C1s mutant M15 (S360N) (human, UniProt P09871 16-688)
T3 construct: The entry is the mutant itself
T3 sequence: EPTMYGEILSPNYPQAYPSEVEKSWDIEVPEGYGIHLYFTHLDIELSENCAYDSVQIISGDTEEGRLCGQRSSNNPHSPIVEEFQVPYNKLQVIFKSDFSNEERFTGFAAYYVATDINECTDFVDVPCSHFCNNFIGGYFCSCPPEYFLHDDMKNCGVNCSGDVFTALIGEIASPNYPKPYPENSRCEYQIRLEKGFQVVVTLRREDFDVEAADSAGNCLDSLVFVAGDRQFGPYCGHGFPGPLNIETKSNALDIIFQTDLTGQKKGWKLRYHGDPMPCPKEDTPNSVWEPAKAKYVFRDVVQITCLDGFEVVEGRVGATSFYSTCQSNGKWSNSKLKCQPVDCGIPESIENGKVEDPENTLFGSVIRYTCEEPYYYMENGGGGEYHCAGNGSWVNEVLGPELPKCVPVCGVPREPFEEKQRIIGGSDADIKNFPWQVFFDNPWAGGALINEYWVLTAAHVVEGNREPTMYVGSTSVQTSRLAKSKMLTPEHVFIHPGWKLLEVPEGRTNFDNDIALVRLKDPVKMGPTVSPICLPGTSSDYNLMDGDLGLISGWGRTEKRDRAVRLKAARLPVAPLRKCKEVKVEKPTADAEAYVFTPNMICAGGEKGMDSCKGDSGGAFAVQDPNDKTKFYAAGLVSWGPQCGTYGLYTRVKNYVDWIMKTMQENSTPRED


Key:
[1] = target: T1, human C1s deletion mutant 1 (M151) (human); experiment: ELISA, plate coated with 200 ng/well HuC1s(M151), OD450nm
[2] = target: T2, human C1s mutant M10 (D283I & P285A); experiment: ELISA, plate coated with human C1s mutant M10: D283I, P285A, OD450nm
Procedure: (§1) ELISA was carried out by first coating 96-well plates with 200 ng/well of full-length or truncated C1s proteins overnight. The next morning, plates were blocked with SuperBlock T20 blocking buffer (Thermo Scientific 37536) for 1 h with gentle shaking. Then, various concentrations of anti-C1s antibodies diluted in SuperBlock T20 blocking buffer were added to the plates and incubated for 1 h with gentle shaking. Mouse IgG (Sigma-Aldrich 15381) and human IgG1 (BioXCell BP0297) were used as negative controls. The plates were washed before incubating with HRP conjugated secondary antibodies diluted in SuperBlock T20 blocking buffer (goat anti-mouse IgG (H+L) cross-adsorbed secondary antibody HRP (Invitrogen G-21040) or goat anti-human IgG antibody, HRP conjugate (Millipore AP309P)) for 1 h with gentle shaking. At last, the plates were washed and color developed with ELISA liquid HRP substrate (Sigma-Aldrich), followed by stopping the reaction with addition of 1M H₂SO₄ in the same volume as the ELISA liquid substrate. Bound antibody was measured by absorbance at OD₄₅₀ₙₘ.
(§2) Binding of anti-C1s antibodies to mutants M1-M20 of human C1s was measured by ELISA as described in Example 4, and results are shown in FIGS. 6B-6U. All anti-C1s humanized variants including hz2-7(H1L2), hz2-8(H1L2 G80A) and hz2-8(H1L2 G80A/T82A) maintained strong binding properties to the majority (16 out of 20) of C1s mutants including M1 (FIG. 6B), M2 (FIG. 6C), M3 (FIG. 6D). M4 (FIG. 6E), M7 (FIG. 6H), M8 (FIG. 6I), M10 (FIG. 6K), M11 (FIG. 6L), M12 (FIG. 6M), M13 (FIG. 6N), M15 (FIG. 6P), M16 (FIG. 6Q), M17 (FIG. 6R), M18 (FIG. 6S), M19 (FIG. 6T) and M20 (FIG. 6U).

[3] = target: T3, human C1s mutant M15 (S360N); experiment: ELISA, plate coated with human C1s mutant M15: S360N, OD450nm
Procedure: as §1, §2

| EC50 [1] | EC50 [2] | EC50 [3] | Binder |
| --- | --- | --- | --- |
| 13 ng/mL |  |  | Anti-C1s antibody 2-7 (antibody, human IgG1, kappa, V domains shown, the HC/LC entries may hold it too; also called clone 2-7) VH: EVKLEESGGGLVPPGGSMKLSCVASGFTFSNYFMNWVRQSPEKGLEWVAEIRLKFTNYATHYAESVEGRFTISRDDSKSSVYLQMNNLRAEDTGIYYCTRDYGSRNGYFDYWGQGTTLTVSS VL: DIVMTQAAPSVPVTPGESVSISCRSSKSLLHSNGNTFLYWFLQRPGQSPQLLIYRMSNLASGVPDRFSGSGSGTAFTLRVSRVEAEDVGIYYCMQHLEYPYTFGGGTKLEIKT |
| 18 ng/mL |  |  | Anti-C1s antibody 2-8 (antibody, V domains shown, the HC/LC entries may hold it too; also called clone 2-8) VH: EVQLQQSGAELVRPGALVKLSCKASGFNIKEYYMHWVKQRPEQGLEWIGWIDPENGDTIYDPKFQGKASITADTSSNTAYLQLSSLTSEDTAVYYCARSRLFFAYWGQGTLVTVSA VL: DIVMTQSHKFMSTSVGDRVSFTCKASQDVRTAVDWYQQKPGQSPKLLIYSASYRYTGVPDRFTGTGSGTDFTFTISSVQAEDLAVYFCQQQYTTPYTFGGGTKLEIKT |
| 8 ng/mL | 6 ng/mL | 3 ng/mL | Anti-C1s antibody hz2-7(H1L2) (antibody, V domains shown, Humanized, human IgG1 / kappa; also called hz2-7(1L2)) VH: EVQLLESGGGLVQPGGSLRLSCAASGFTFSNYFMNWVRQAPGKGLEWVSEIRLKFTNYATHYADSVKGRFTISRDDSKSTLYLQMNSLRAEDTAVYYCTRDYGSRNGYFDYWGQGTLVTVSS VL: DIVMTQTPLSLPVTPGEPASISCRSSKSLLHSNGNTFLYWFLQKPGQSPQLLIYRMSNLASGVPDRFSGSGSGTDFTLKISRVEAEDVGVYYCMQHLEYPYTFGGGTKLEIKR |
|  | 5 ng/mL | 4 ng/mL | Anti-C1s antibody hz2-8 (H1L2 G80A) (antibody, V domains shown, Humanized variant with G80A in HC CDR2 (already in the entry), human IgG1 / kappa) VH: QVQLVQSGAEVKKPGASVKVSCKASGFNIKEYYMHWVRQAPEQGLEWMGWIDPENADTIYAQKFQGRVTITADTSTNTAYMELSSLRSEDTAVYYCARSRLFFAYWGQGTLVTVSS VL: DIQMTQSPKSLSASVGDRVTITCRASQDVRTALDWYQQKPGQSPKLLIYSASYRYSGVPSRFSGSGSGTDFTLTISSLQPEDFATYYCQQQYTTPYTFGQGTKLEIKR |
|  | 6 ng/mL | 5 ng/mL | Anti-C1s antibody hz2-8 (H1L2 G80A/T82A) (antibody, V domains shown, Humanized variant with G80A and T82A in HC CDR2 (already in the entry), human IgG1 / kappa) VH: QVQLVQSGAEVKKPGASVKVSCKASGFNIKEYYMHWVRQAPEQGLEWMGWIDPENADAIYAQKFQGRVTITADTSTNTAYMELSSLRSEDTAVYYCARSRLFFAYWGQGTLVTVSS VL: DIQMTQSPKSLSASVGDRVTITCRASQDVRTALDWYQQKPGQSPKLLIYSASYRYSGVPSRFSGSGSGTDFTLTISSLQPEDFATYYCQQQYTTPYTFGQGTKLEIKR |
